T1: EsCas13d, nuclease-dead (Eubacterium siraeum, UniProt B0MS50, R295A;H300A;R849A;H854A)
T1 sequence: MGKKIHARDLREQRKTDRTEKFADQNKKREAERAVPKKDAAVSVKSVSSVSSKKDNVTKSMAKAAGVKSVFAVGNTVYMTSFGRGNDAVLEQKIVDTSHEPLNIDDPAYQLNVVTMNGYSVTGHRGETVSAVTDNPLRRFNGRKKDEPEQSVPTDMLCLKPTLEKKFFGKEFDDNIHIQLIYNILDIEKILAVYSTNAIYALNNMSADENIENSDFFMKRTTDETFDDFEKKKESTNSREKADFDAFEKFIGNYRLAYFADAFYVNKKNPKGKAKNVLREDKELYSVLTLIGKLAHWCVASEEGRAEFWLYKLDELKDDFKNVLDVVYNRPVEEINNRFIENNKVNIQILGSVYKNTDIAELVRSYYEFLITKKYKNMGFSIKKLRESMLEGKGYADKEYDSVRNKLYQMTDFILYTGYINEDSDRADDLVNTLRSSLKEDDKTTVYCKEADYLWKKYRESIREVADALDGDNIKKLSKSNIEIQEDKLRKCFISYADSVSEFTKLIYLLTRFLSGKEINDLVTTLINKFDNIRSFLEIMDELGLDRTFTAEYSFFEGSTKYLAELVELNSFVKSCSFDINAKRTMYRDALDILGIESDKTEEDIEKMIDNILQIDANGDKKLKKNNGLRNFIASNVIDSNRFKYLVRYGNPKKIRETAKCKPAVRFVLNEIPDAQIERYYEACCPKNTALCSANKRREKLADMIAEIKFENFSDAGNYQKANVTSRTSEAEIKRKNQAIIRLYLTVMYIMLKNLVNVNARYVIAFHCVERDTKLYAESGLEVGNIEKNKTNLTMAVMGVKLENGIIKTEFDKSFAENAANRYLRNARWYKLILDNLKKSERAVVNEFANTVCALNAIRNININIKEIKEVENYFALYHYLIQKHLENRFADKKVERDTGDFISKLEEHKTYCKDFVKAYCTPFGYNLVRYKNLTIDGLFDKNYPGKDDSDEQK

B1: target 3 insC 3' of 4,insU 3' of 1 (mixed)
RNA 1: CACCCGUGCAAAAUUGCAGGGGUCUAAAACGACCUGAAUAUUUCAGAUCAAA
RNA 2: GGGAAUGGAUCCACAUCUACGAAUUCGUUUUUGAUCUGAAAUAUUCAGCGUCUUGCAGAUCGGAAGAGCACACGU
B2: target 3 insA 3' of 22,insU 3' of 22 (mixed)
RNA 1: B1 RNA 1
RNA 2: GGGAAUGGAUCCACAUCUACGAAUUCGUUUAUUUGAUCUGAAAUAUUCAGGUCUGCAGAUCGGAAGAGCACACGU
B3: target 3 insA 3' of 6,insG 3' of 1 (mixed)
RNA 1: B1 RNA 1
RNA 2: B1 RNA 2 with G48A, C49G, U53G
B4: target 3 insA 3' of 7,insU 3' of 4 (mixed)
RNA 1: B1 RNA 1
RNA 2: B1 RNA 2 with C46A, A47C, G48A, C49G, G50U, U51G, C52U, U53C
B5: target 3 C6U,U21G (mixed)
RNA 1: B1 RNA 1
RNA 2: GGGAAUGGAUCCACAUCUACGAAUUCGUUUGUGAUCUGAAAUAUUUAGGUCUGCAGAUCGGAAGAGCACACGU
B6: target 3 U2C,C6U (mixed)
RNA 1: B1 RNA 1
RNA 2: B5 RNA 2 with G31U, U50C
B7: target 3 U2G,U8A (mixed)
RNA 1: B1 RNA 1
RNA 2: B5 RNA 2 with G31U, U44A, U46C, U50G
B8: target 3 C1U,G14U (mixed)
RNA 1: B1 RNA 1
RNA 2: B5 RNA 2 with G31U, G38U, U46C, C51U
B9: target 3 insA 3' of 22,insG 3' of 5 (mixed)
RNA 1: B1 RNA 1
RNA 2: GGGAAUGGAUCCACAUCUACGAAUUCGUUUAUUGAUCUGAAAUAUUCAGGGUCUGCAGAUCGGAAGAGCACACGU
B10: target 3 insC 3' of 3,insA 3' of 1 (mixed)
RNA 1: B1 RNA 1
RNA 2: B1 RNA 2 with C49G, G50C, U53A
B11: target 3 insU 3' of 16 (mixed)
RNA 1: B1 RNA 1
RNA 2: GGGAAUGGAUCCACAUCUACGAAUUCGUUUUUGAUCUUGAAAUAUUCAGGUCUGCAGAUCGGAAGAGCACACGU
B12: target 3 U2A,U22A (mixed)
RNA 1: B1 RNA 1
RNA 2: B5 RNA 2 with U30A, G31U, U46C, U50A
B13: target 3 A12G,U21A (mixed)
RNA 1: B1 RNA 1
RNA 2: B5 RNA 2 with G31A, A40G, U46C
B14: target 3 insC 3' of 3,insU 3' of 1 (mixed)
RNA 1: B1 RNA 1
RNA 2: B1 RNA 2 with C49G, G50C
B15: target 3 G3C,U22G (mixed)
RNA 1: B1 RNA 1
RNA 2: B5 RNA 2 with U30G, G31U, U46C, G49C
B16: target 3 insA 3' of 15,insA 3' of 2 (mixed)
RNA 1: B1 RNA 1
RNA 2: B9 RNA 2 with A31U, U33G, G34A, A35U, U36C, C37U, U38A, G51U, U52A
B17: target 3 insA 3' of 8,insU 3' of 5 (mixed)
RNA 1: B1 RNA 1
RNA 2: B1 RNA 2 with U45A, C46U, A47C, G48A, C49U, U51G, C52U, U53C
B18: target 3 G4U,U22C (mixed)
RNA 1: B1 RNA 1
RNA 2: B5 RNA 2 with U30C, G31U, U46C, G48U
B19: target 3 G3U,U21A (mixed)
RNA 1: B1 RNA 1
RNA 2: B5 RNA 2 with G31A, U46C, G49U
B20: target 3 G3C,G4C (mixed)
RNA 1: B1 RNA 1
RNA 2: B5 RNA 2 with G31U, U46C, G48C, G49C
B21: target 3 insA 3' of 3,insC 3' of 3 (mixed)
RNA 1: B1 RNA 1
RNA 2: B1 RNA 2 with C49G, G50A, U51C, C52U, U53C
B22: target 3 insU 3' of 9,insC 3' of 9 (mixed)
RNA 1: B1 RNA 1
RNA 2: B1 RNA 2 with U45C, C46U, A47U, G48C, C49A, U51G, C52U, U53C
B23: target 3 insA 3' of 6,insA 3' of 1 (mixed)
RNA 1: B1 RNA 1
RNA 2: B1 RNA 2 with G48A, C49G, U53A
B24: target 3 insC 3' of 4,insC 3' of 4 (mixed)
RNA 1: B1 RNA 1
RNA 2: B1 RNA 2 with G50C, U51G, C52U, U53C
B25: target 3 G4U,C6A (mixed)
RNA 1: B1 RNA 1
RNA 2: B5 RNA 2 with G31U, U46A, G48U
B26: target 3 insC 3' of 3 (mixed)
RNA 1: B1 RNA 1
RNA 2: B11 RNA 2 with U38G, G39A, A42U, U43A, A44U, U46C, C47A, A48G, G50C
B27: target 3 A11C,U22A (mixed)
RNA 1: B1 RNA 1
RNA 2: B5 RNA 2 with U30A, G31U, A41C, U46C
B28: target 3 insC 3' of 12,insU 3' of 4 (mixed)
RNA 1: B1 RNA 1
RNA 2: GGGAAUGGAUCCACAUCUACGAAUUCGUUUUUGAUCUGAACAUAUUCAGUGUCUGCAGAUCGGAAGAGCACACGU
B29: target 1 G5C,U8C (mixed)
RNA 1: CACCCGUGCAAAAAUGCAGGGGUCUAAAACUGAGCGGAUAACCUCUCUAUGG
RNA 2: GGGAAUGGAUCCACAUCUACGAAUUCGUACCAUAGAGAGGUUACCCCCUCACCGAGAUCGGAAGAGCACACGU
B30: target 1 insU 3' of 18,insG 3' of 11 (mixed)
RNA 1: B29 RNA 1
RNA 2: GGGAAUGGAUCCACAUCUACGAAUUCGUACCAUAUGAGAGGUGUAUCCGCUCACCGAGAUCGGAAGAGCACACGU
B31: target 1 insG 3' of 3 (mixed)
RNA 1: B29 RNA 1
RNA 2: GGGAAUGGAUCCACAUCUACGAAUUCGUACCAUAGAGAGGUUAUCCGCUGCACCGAGAUCGGAAGAGCACACGU

Numbering of substitutions follows the chain as printed. Names and notes keep the numbering of the source.

The data set deals with T1, EsCas13d, nuclease-dead. In words: crRNA (strand 1, pre-loaded); Mg2+; 40 mM Tris-HCl pH 7.5, 150 mM NaCl, 6 mM MgCl2, 1 mM DTT, 0.1% Tween-20, 0.2 mg/ml BSA; 25 C; 10 min per concentration, then washed. Particulars: tags: His6-TwinStrep-SUMO cleaved; N-terminal SNAP kept (SNAP-Surface 488); label: 3' end held by stalled T7 RNA polymerase.
For the molecule B1, binding was put at a Kd of 72.5 ± 33.5 nM.
The result for B2 reads 14.6 ± 1.45 nM; that for B3, 32 ± 11 nM.
As for B4, binding was put at a Kd of 12.7 ± 1.2 nM.
With B5 the figure was 110 ± 40 nM.
With B6 the figure was 52.5 ± 7 nM; with B7, 21.6 ± 3.55 nM.
With B8 the figure was 72.5 ± 19 nM.
For B9, the Kd (as a rule, the equilibrium constant for the complex coming apart) stood at 23.1 ± 3.4 nM.
With B10, binding was put at a Kd of 83 ± 17 nM.
The result for B11 reads 64 ± 8.5 nM.
As for B12, binding was characterised by a dissociation constant (Kd) of 32.8 ± 2.85 nM. Compared with the last molecule, the Kd is about 2-fold lower.
On to B13, for which the Kd amounted to 97.5 ± 47 nM.
B14: the Kd was 46 ± 6 nM.
On to B15, for which the dissociation constant (Kd) came out at 79.5 ± 13 nM.
B16 displayed a Kd of around 64 nM.
The result for B17 reads 33.9 ± 3.75 nM.
The result for B18 reads 4.65 ± 0.85 nM; that for B19, 87.5 ± 15.5 nM.
Regarding B20, the Kd amounted to 36.1 ± 5.75 nM.
With B21 the figure was 22.8 ± 2.35 nM; with B22, 96.5 ± 19 nM; with B23, 53 ± 18 nM.
B24 yielded a Kd of 34.5 ± 8.5 nM.
The result for B25 reads 29.5 ± 7.5 nM; that for B26, 19.4 ± 2.05 nM.
Regarding B27, the Kd was around 90 nM.
For B28, the dissociation constant Kd is around 64.5 nM.
Take B29: binding was characterised by a dissociation constant (Kd) of 6.4 ± 0.4 nM.
With B30 the figure was 78 ± 21 nM.
With B31 the figure was 7.3 ± 0.6 nM.

The values above are taken from publication PMC10786891, “Massively parallel profiling of RNA-targeting CRISPR-Cas13d”.
